In patent publication US20240026407A1, “MODIFICATION OF SAPONINS” (GLAXOSMITHKLINE BIOLOGICALS SA, priority 2020, published 2024):

B1: 1081 (protein)
chain: MKNSNLFAKLLAVVLIFLSNPTLAVEWTAEWIWSKERFTDPNSWVVIRKEVNLESVGQNSTAYISADTKYWLWINGQLVVFEGSYTGGPSPVKPSPRVDFYPIASNKYYDQVDIGRYLKKGKNTIAALAWYYGDNGQKGTYISSNTGGFIFQAHVGDNVIATDSSWKVLPHPAYDKKVIKKSPYRVAAWSVKYDARKDLNDWSNKAWYMPGYDDSDWQTPRIKRQPPRPPFFGLYPSEIPPLNNYGLANCENYPESKFPFISDGKTIKCKLDFNKNFTPYFDIEAKAGQQIHIKSNMRLNTIETFYTTKAGRQQFESYSWLNGRIIEYRIPKGVKVHGLKYRWTGVGTTPGHFEADDAWYSRIWQMAENTLYICARDNFMDTPDRERGLWIGDVADQASYLFYSMDKPGRDLLKKAIKVTLAFSDSESGIFAGLGPGRFRELPAQSLQFIEQGIWHYYYNTGDLETLKFAYPYVHRYLTLWGIKDNGLATFRTGDWKWTDWGPQDTIDYDVIQNALYYSALVSARKMAKAVGDYTHIGLYSHRINSIKQAYQKHYWQNGYFSSNPNKFKDDRANAIAILFGLAKPEQYQQIVDNVLIPNHFASPHFEWMVYNAMAIAGRYEDALQRMKTRYAKQVDNQALSTLAEYLPSGGTENHAWNAPSTVLSQHIAGIAPTSVAWESYQVMPNMAHFKRVKQFVPSVQGDIDFEIQRDQQTVKIEIDSPENTTAIIGVPKQYFAIQTIMVNGKKLWENGQLTASISGIKLAGEDNKYVKFEVQPGHWLVTAQR
modifications: Catenovulum agarivorans
B2: 1044 (protein, listed as Streptomyces sp.)
chain: MHETHPRRGGMTRRSVLAAGLTTGVLAALGPAAEAAASPAASPAASPAASASAGATPTASWFAAPARAVRPKFRWWWPDGLVDPAEIAREIDQMADAGFGGAEIAAVHHSISDTSVLDTAHHGWGSAPWRDGVKAALRQAARRGLTVDLTLGPSWPVAVPGVTPDDEAAVKELAYGKATLTGGAAFDGPVPAPVYAPASGVTVQKLFAVQAARVDTAYSSGKATGLDVDSVTDLTNRVADGNLRWTPPDSGTWVVLSYWQRGSGQQPEAGPHSSPAAYVIDHFSAAGTAAVTRYWDTAILDSTLRKLLKAAGGAFFEDSVELESKGLQWTPGLPDAFRAHTGRDLLPYLPAVILDNSNQVFAFEARLTQEIRHDFWETVSNLFNEHHLGALKKWAHGHGMKLRSQPYGLQTDAIASAAVLDIPEGESLGFKNLDDYRCLAGGRDMAGSRVLSCESGAYAGGAYNTTWDKFLRTMGGAYAAGVNQTVIHGFSYATAPGVSWPGFAAFSPYSGAPGYGESWGPRQPTWHHVADVAGYIGRVQQVLQSGTVRADVAVFRQTGYTATGIGASWLTSTGVPLGWTHQFLSGPLLDLPNAKVSGKRLAPDGPAYKALFLEGDFFYGSTPTLSVDDAHKLLKFARAGLPTVLLGAFGQALTPGLPDDGETDELRALTAELLALPNVRNVTDKTLVGAAFAELGVTSDVSYSVSSTLLNAHRVTDDADFYYLCNGKHAETVKPPVAAIDHDVTLRSTVRGGAGTVPYLLDPWSGRVTRLARYTRDGDAFTFRVTLQPGETLVVALGRPGLFGNRDGNRPHAVATDADEALFTGGRLAVRASAAGTFTTTLSTGRKVTTKVAEVPAAVTPDRWTLSVDDWRPGADATSTEVVRHSLTLDALLPWSQIPELADVGGIGTYRTTVTLPKSWSSATGALLRLGSVTDTCRVTVNGVRLDPVDRVNPVVDLGGRLRKGANTLEIEVATPLFNRLRVSNPAVFGTAARQAYGLVGPVQLVPYVQRTVA
B3: 1072 (protein, listed as Kribbella flavida)
chain: MAEPVAPDGWTSGGPLAVAKLTAEYAEEPHGTDEVRPRLAWIATAPGYGATQSAYQVLVASQPELLSPEQADVWDSGQVGSDAVQVAYDGPALAARTRYHWAVRLWDGQGRAGRWSRPSWFETALLDEGFGAARWIGASTEAAPLLRRPFELTGPVRRARLYASGLAYAVLRVNGQQVGDAVLDPGFTNYDRTVLYVTHDVTELLQAGENVLGAELGRGFFGMTTPNVWRWHQAPWTGDPRLLARLVIDHEDGTTTELVSDGSWRVTSGPTVSDSLYAGERYDARLAQPGWDAPGFDDAAWSPAVELTAPQGTLRAQAHEPIRVVEEVAPVAISSPRAGVQVIDFGRTTAGWAKLRVEAPAGSRFTLVYGETLTADGQVEATNRHVDGDRFQQDEYVAAGHEIEQWEPRFSYKGFRYLQVTGDAEAEVVLKVVHSDVRAASRFDSDVEVYSWLEQAMRRTVLNNLHGIPTDTPIFEKNGWTGDAQVGAPTMASLVDLARFFTKWLDDLRDSQLPDGRLPVIVPSAGWGYAELAPATEWSTVYPFLLREMHRWYGDTRVLADHWDAVLRYLDWELERVEDGLSISVLGDWLPPGYPDGPPPEDSRLTATAYLHRAVTAVVEIGELIGETSELERLRKAAAELADGLNREFLDREAGLYRTAADPDYRQTSNAVPLAFGLVPEDQVPRVVANLVADVQARDFHLNTGCLGVGVLLPVLTQYGHADVAAKLAQQRTYPSWGYWLEEGADTLWEMWEADTRSRNHYFHGTVVQWLLESVAGLRNVGNGWQRIVVRPDARTGSTSAALRTDTVRGRVAASWRLVGRVLQLEVQVPVGCVAEVHVPSEAAADVTAVPSPYAGEPTRSDGYTVYTVPSGQWHFTSRTA
B4: 1009 (protein)
chain: MFKILRPIGFLAALLLLTGEMVMGQKSTQIISPSVFQNPPSTYGIRCWWWWLNGNVDKEVITRDLEEMKAKGFSGACLFDAGGAEQRGNAQVPAGPMFGSPQWRELYIHAMREADRLGLVMSMSIQSGWNLGGPDITAEESAKQVAFSQVQVKGNTRISQELPMPKTHHDFYRDIVVLAIPTKVFANRPPIRDFENKAATREVGASVPETRPLLTDIPGTPGEEDASKKQVLNITRHFKNGKLEWRAPAGEWTVLRFGYTATDAEVSTSSGDWQGLVIDYMSEKAFNRYWDTNVEPLLKAIGPLAGKTLRYLQTDSFEAGGMNWTDGFEKEFIKHRGYDPIPYLPVLAGKIIDSREVSNRFLSDLRKTLADLIAEKHYGVFSKRSAAYGIGIQPESAGPHAGPFDGLKNYGYSEIMMSEFWSPSPHRPRPIDRFFVKQAGSAAKIHNKKLVGAESFTTIGPHWNDVMWSDMKPSVDHEFSAGLNLVYLHTFTASPKAMGIPGQEYFAGTHFNPNVTWWNQSTAFIQYLTRCQYLLQSGTSVADVLYYYGDHSPNLGRLKEDDPAKALPGFDYDLINEDRLMELQAKDGKIFLPHGVSYRVLVLPDHKTLSLKALQKVEALVKEGASVIGSKTVTTASLVKYPASEQTVRQIADGLWGTGNEATGSRNVGKGTIAWGITAADFLRSKGVHFDMEITARETGSRYDYIHREDTGADFYFISSQNRAASKMTAAFRMTGKQPELWNPVTGETRPATSFYQKDGKTYIPLEFDPYGSVFVVFRDDIAKDQNGSAASNFVHLETATTLHGSWDVAFDPAWGGPAAVVFNELVSWPDRNEEGIKYYSGKAVYSKKFDASQDVAESKQVFLDLGEVKDIGIAKVTLNGKDLGILWAPPLRVPVGGVLKEKDNVLQIEVVNTWRNRLIGDRTKPVEKRFTKTNVKVLETWQLTPSGLLGPVRLLTGSEQ
modifications: Dyadobacter fermentans

Tests used:
Assay type in all cases: biochemical, Quillaja saponaria
[1] = Experiment 6-1: screening of rhamnosidases for derhamnosylation of saponins in treated bark extract (2%), QS-17 2296 to QS-18 2150 (PAR %); settings: TBE 2%, pH 7.5, 30 degC, 18 h; TIC peak area ratio percent of rhamnosylated starting saponin to derhamnosylated product, LCMS/MS; negative controls 4.876, 5.225
[2] = Experiment 6-1: screening of rhamnosidases for derhamnosylation of saponins in treated bark extract (2%), desglucosyl-QS-17 2134 to QS-21 1988 (PAR %); settings: TBE 2%, pH 7.5, 30 degC, 18 h; TIC peak area ratio percent, LCMS/MS; negative controls 2.719, 2.158
[3] = Experiment 6-1: screening of rhamnosidases for derhamnosylation of saponins in treated bark extract (2%), QS-17 2310 to QS-18 2164 (PAR %); settings: TBE 2%, pH 7.5, 30 degC, 18 h; TIC peak area ratio percent, LCMS/MS; negative controls 3.061, 2.429
[4] = Experiment 6-1: specificity of rhamnosidases towards other rhamnose residues (C3 saccharide rhamnose, C28 saccharide rhamnose); settings: TBE 2%, pH 7.5, 30 degC, 18 h; LCMS/MS; negative controls 0.18, 0.17

Molecule	QS-17 (PAR %) [1] [%]	Peak75 (PAR %) [2] [%]	Peak57 (PAR %) [3] [%]	ratio PP/QS-21 [4]
B1	5.348	2.473	2.624	0.17
B2	5.370	2.274	3.156	0.16
B3	5.457	2.462	3.245	0.17
B4	5.408	2.379	3.762	0.16
